Laboratory results from the supplement of paper PMC11316812.
± gives the standard deviation of the averaged measurements.

Key:
[1] = system: MCF7; experiment: percentage of EdU-negative (G0-arrested) nuclei per well, 72 h; higher = more G0 arrest; details: reference: sequence is the full UniProt precursor, the tested protein was the secreted form or ectodomain
[2] = system: hTERT-HMEC; experiment: as above; details: reference: sequence is the full UniProt precursor, the tested protein was the secreted form or ectodomain
[3] = protein concentration 0.0065 µM
[4] = protein concentration 0.03125 µM
[5] = protein concentration 0.3125 µM
[6] = protein concentration 0.0175 µM
[7] = protein concentration 0.0225 µM
[8] = protein concentration 0.0345714 µM
[9] = protein concentration 0.345714 µM
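Also: secreted proteins added to cultured cells, EdU pulse at the end, nuclei found by Hoechst imaging, EdU status from nuclear versus surrounding ring intensity ratio, PBS as neutral control.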

## MEAVAVAAAVGVLLLAGAGGAAGDEAREAAAVRALVARLLGPGPAADFSVSVERALAAKPGLDTYSLGGGGAARVRVRGSTGVAAAAGLHRYLRDFCGCHVAWSGSQLRLPRPLPAVPGELTEATPNRYRYYQNVCTQSYSFVWWDWARWEREIDWMALNGINLALAWSGQEAIWQRVYLALGLTQAEINEFFTGPAFLAWGRMGNLHTWDGPLPPSWHIKQLYLQHRVLDQMRSFGMTPVLPAFAGHVPEAVTRVFPQVNVTKMGSWGHFNCSYSCSFLLAPEDPIFPIIGSLFLRELIKEFGTDHIYGADTFNEMQPPSSEPSYLAAATTAVYEAMTAVDTEAVWLLQGWLFQHQPQFWGPAQIRAVLGAVPRGRLLVLDLFAESQPVYTRTASFQGQPFIWCMLHNFGGNHGLFGALEAVNGGPEAARLFPNSTMVGTGMAPEGISQNEVVYSLMAELGWRKDPVPDLAAWVTSFAARRYGVSHPDAGAAWRLLLRSVYNCSGEACRGHNRSPLVRRPSLQMNTSIWYNRSDVFEAWRLLLTSAPSLATSPAFRYDLLDLTRQAVQELVSLYYEEARSAYLSKELASLLRAGGVLAYELLPALDEVLASDSRFLLGSWLEQARAAAVSEAEADFYEQNSRYQLTLWGPEGNILDYANKQLAGLVANYYTPRWRLFLEALVDSVAQGIPFQQHQFDKNVFQLEQAFVLSKQRYPSQPRGDTVDLAKKIFLKYYPRWVAGSW
[1]; [3]
  percentage of EdU-negative: 24.9 ± 1.1%
[1]; protein concentration 0.065 µM
  percentage of EdU-negative: 26 ± 2.8%
[2]; [3]
  percentage of EdU-negative: 4.39 ± 0.1%
[2]; protein concentration 0.065 µM
  percentage of EdU-negative: 5.55 ± 0.91%

## MKTLQFFFLFCCWKAICCNSCELTNITIAIEKEECRFCISINTTWCAGYCYTRDLVYKDPARPKIQKTCTFKELVYETVRVPGCAHHADSLYTYPVATQCHCGKCDSDSTDCTVRGLGPSYCSFGEMKE
[1]; [4]
  percentage of EdU-negative: 25.3 ± 0.9%
[1]; [5]
  percentage of EdU-negative: 26.6 ± 1.5%
[2]; [4]
  percentage of EdU-negative: 5.26 ± 0.36%
[2]; [5]
  percentage of EdU-negative: 4.61 ± 0.34%

## MTRGGPGGRPGLPQPPPLLLLLLLLPLLLVTAEPPKPAGVYYATAYWMPAEKTVQVKNVMDKNGDAYGFYNNSVKTTGWGILEIRAGYGSQTLSNEIIMFVAGFLEGYLTAPHMNDHYTNLYPQLITKPSIMDKVQDFMEKQDKWTRKNIKEYKTDSFWRHTGYVMAQIDGLYVGAKKRAILEGTKPMTLFQIQFLNSVGDLLDLIPSLSPTKNGSLKVFKRWDMGHCSALIKVLPGFENILFAHSSWYTYAAMLRIYKHWDFNVIDKDTSSSRLSFSSYPGFLESLDDFYILSSGLILLQTTNSVFNKTLLKQVIPETLLSWQRVRVANMMADSGKRWADIFSKYNSGTYNNQYMVLDLKKVKLNHSLDKGTLYIVEQIPTYVEYSEQTDVLRKGYWPSYNVPFHEKIYNWSGYPLLVQKLGLDYSYDLAPRAKIFRRDQGKVTDTASMKYIMRYNNYKKDPYSRGDPCNTICCREDLNSPNPSPGGCYDTKVADIYLASQYTSYAISGPTVQGGLPVFRWDRFNKTLHQGMPEVYNFDFITMKPILKLDIK [Q6P4A8]
[1]; [6]
  percentage of EdU-negative: 25.6 ± 2.5%
[1]; protein concentration 0.175 µM
  percentage of EdU-negative: 27.7 ± 0.8%
[2]; [6]
  percentage of EdU-negative: 4.42 ± 0.062%
[2]; protein concentration 0.175 µM
  percentage of EdU-negative: 19.7 ± 1.7%

## MQAAWLLGALVVPQLLGFGHGARGAEREWEGGWGGAQEEEREREALMLKHLQEALGLPAGRGDENPAGTVEGKEDWEMEEDQGEEEEEEATPTPSSGPSPSPTPEDIVTYILGRLAGLDAGLHQLHVRLHALDTRVVELTQGLRQLRNAAGDTRDAVQALQEAQGRAEREHGRLEGCLKGLRLGHKCFLLSRDFEAQAAAQARCTARGGSLAQPADRQQMEALTRYLRAALAPYNWPVWLGVHDRRAEGLYLFENGQRVSFFAWHRSPRPELGAQPSASPHPLSPDQPNGGTLENCVAQASDDGSWWDHDCQRRLYYVCEFPF [Q9Y240]
[1]; [4]
  percentage of EdU-negative: 24.4 ± 0.81%
[1]; [5]
  percentage of EdU-negative: 27.6 ± 1.3%
[2]; [4]
  percentage of EdU-negative: 6.19 ± 0.7%
[2]; [5]
  percentage of EdU-negative: 6.64 ± 1.2%

## MAQRCVCVLALVAMLLLVFPTVSRSMGPRSGEHQRASRIPSQFSKEERVAMKEALKGAIQIPTVTFSSEKSNTTALAEFGKYIHKVFPTVVSTSFIQHEVVEEYSHLFTIQGSDPSLQPYLLMAHFDVVPAPEEGWEVPPFSGLERDGIIYGRGTLDDKNSVMALLQALELLLIRKYIPRRSFFISLGHDEESSGTGAQRISALLQSRGVQLAFIVDEGGFILDDFIPNFKKPIALIAVSEKGSMNLMLQVNMTSGHSSAPPKETSIGILAAAVSRLEQTPMPIIFGSGTVVTVLQQLANEFPFPVNIILSNPWLFEPLISRFMERNPLTNAIIRTTTALTIFKAGVKFNVIPPVAQATVNFRIHPGQTVQEVLELTKNIVADNRVQFHVLSAFDPLPVSPSDDKALGYQLLRQTVQSVFPEVNITAPVTSIGNTDSRFFTNLTTGIYRFYPIYIQPEDFKRIHGVNEKISVQAYETQVKFIFELIQNADTDQEPVSHLHKL [Q6GTS8]
[1]; [7]
  percentage of EdU-negative: 28 ± 2%
[1]; protein concentration 0.225 µM
  percentage of EdU-negative: 24.4 ± 2.8%
[2]; [7]
  percentage of EdU-negative: 4.69 ± 0.48%
[2]; protein concentration 0.225 µM
  percentage of EdU-negative: 5.33 ± 0.14%

## MCSTMSAPTCLAHLPPCFLLLALVLVPSDASGQSSRNDWQVLQPEGPMLVAEGETLLLRCMVVGSCTDGMIKWVKVSTQDQQEIYNFKRGSFPGVMPMIQRTSEPLNCDYSIYIHNVTREHTGTYHCVRFDGLSEHSEMKSDEGTSVLVKGAGDPEPDLWIIQPQELVLGTTGDTVFLNCTVLGDGPPGPIRWFQGAGLSREAIYNFGGISHPKETAVQASNNDFSILLQNVSSEDAGTYYCVKFQRKPNRQYLSGQGTSLKVKAKSTSSKEAEFTSEPATEMSPTGLLVVFAPVVLGLKAITLAALLLALATSRRSPGQEDVKTTGPAGAMNTLAWSKGQE [Q5JXA9]
[1]; [7]
  percentage of EdU-negative: 28 ± 1.8%
[1]; protein concentration 0.225 µM
  percentage of EdU-negative: 26.5 ± 3.1%
[2]; [7]
  percentage of EdU-negative: 5.12 ± 0.92%
[2]; protein concentration 0.225 µM
  percentage of EdU-negative: 5.14 ± 0.34%

## MSVMKPCLMTIAILMILAQKTPGGLFRSHNGKSREPWNPCELYQGMCRNACREYEIQYLTCPNDQKCCLKLSVKITSSKNVKEDYDSNSNLSVTNSSSYSHI [Q30KQ4]
[1]; [7]
  percentage of EdU-negative: 25.4 ± 1.7%
[1]; protein concentration 0.225 µM
  percentage of EdU-negative: 23.5 ± 1.3%
[2]; [7]
  percentage of EdU-negative: 5.55 ± 0.29%
[2]; protein concentration 0.225 µM
  percentage of EdU-negative: 5.56 ± 0.81%

## METPAWPRVPRPETAVARTLLLGWVFAQVAGASGTTNTVAAYNLTWKSTNFKTILEWEPKPVNQVYTVQISTKSGDWKSKCFYTTDTECDLTDEIVKDVKQTYLARVFSYPAGNVESTGSAGEPLYENSPEFTPYLETNLGQPTIQSFEQVGTKVNVTVEDERTLVRRNNTFLSLRDVFGKDLIYTLYYWKSSSSGKKTAKTNTNEFLIDVDKGENYCFSVQAVIPSRTVNRKSTDSPVECMGQEKGEFREIFYIIGAVVFVVIILVIILAISLHKCRKAGVGQSWKENSPLNVS
[1]; [8]
  percentage of EdU-negative: 24.03 ± 0.11%
[1]; [9]
  percentage of EdU-negative: 22.3 ± 1.8%
[2]; [8]
  percentage of EdU-negative: 4.27 ± 0.75%
[2]; [9]
  percentage of EdU-negative: 6.032 ± 0.015%
